Laboratory results reported in paper PMC7837408 (Developmental cell, 2021).

Target: T1, mScarlet-V5-TurboID-Rab9a (human, UniProt P51151 1-201)
T1 sequence (looked up): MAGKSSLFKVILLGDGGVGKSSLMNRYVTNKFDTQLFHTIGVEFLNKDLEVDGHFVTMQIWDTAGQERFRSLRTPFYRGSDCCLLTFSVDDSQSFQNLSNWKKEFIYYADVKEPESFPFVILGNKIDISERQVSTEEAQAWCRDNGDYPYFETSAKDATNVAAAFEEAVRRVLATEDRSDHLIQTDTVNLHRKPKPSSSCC
Experiment: proximity labelling

B1: Reticulon-3L (Rtn3L), endogenous (natural protein, human (endogenous in HeLa), UniProt O95197-2 1-1013, looked up)
chain: MAEPSAATQSHSISSSSFGAEPSAPGGGGSPGACPALGTKSCSSSCAEGLSSLCSDEPSSEIMTSSFLSSSEIHNTGLTILHGEKSHVLGSQPILAKEGKDHLDLLDMKKMEKPQGTSNNVSDSSVSLAAGVHCDRPSIPASFPEHPAFLSKKIGQVEEQIDKETKNPNGVSSREAKTALDADDRFTLLTAQKPPTEYSKVEGIYTYSLSPSKVSGDDVIEKDSPESPFEVIIDKAAFDKEFKDSYKESTDDFGSWSVHTDKESSEDISETNDKLFPLRNKEAGRYPMSALLSRQFSHTNAALEEVSRCVNDMHNFTNEILTWDLVPQVKQQTDKSSDCITKTTGLDMSEYNSEIPVVNLKTSTHQKTPVCSIDGSTPITKSTGDWAEASLQQENAITGKPVPDSLNSTKEFSIKGVQGNMQKQDDTLAELPGSPPEKCDSLGSGVATVKVVLPDDHLKDEMDWQSSALGEITEADSSGESDDTVIEDITADTSFENNKIQAEKPVSIPSAVVKTGEREIKEIPSCEREEKTSKNFEELVSDSELHQDQPDILGRSPASEAACSKVPDTNVSLEDVSEVAPEKPITTENPKLPSTVSPNVFNETEFSLNVTTSAYLESLHGKNVKHIDDSSPEDLIAAFTETRDKGIVDSERNAFKAISEKMTDFKTTPPVEVLHENESGGSEIKDIGSKYSEQSKETNGSEPLGVFPTQGTPVASLDLEQEQLTIKALKELGERQVEKSTSAQRDAELPSEEVLKQTFTFAPESWPQRSYDILERNVKNGSDLGISQKPITIRETTRVDAVSSLSKTELVKKHVLARLLTDFSVHDLIFWRDVKKTGFVFGTTLIMLLSLAAFSVISVVSYLILALLSVTISFRIYKSVIQAVQKSEEGHPFKAYLDVDITLSSEAFHNYMNAAMVHINRALKLIIRLFLVEDLVDSLKLAVFMWLMTYVGAVFNGITLLILAELLIFSVPIVYEKYKTQIDHYVGIARDQTKSIVEKIQAKLPGIAKKKAE
modifications: biotinylated by TurboID in cells (sites not given)
  fold Rtn3L biotinylation, WT Rab9a against Rab9aΔFSV: 10 fold
